Experimental data reported in patent US20160200782A1 (MOERAE MATRIX, published 2016).

Legend:
Assay in all cases: cell-based or functional assay
[1] = molecular target: T1, Fms(h) (human, UniProt P07333 538-972, limits assumed)
T1 sequence (looked up): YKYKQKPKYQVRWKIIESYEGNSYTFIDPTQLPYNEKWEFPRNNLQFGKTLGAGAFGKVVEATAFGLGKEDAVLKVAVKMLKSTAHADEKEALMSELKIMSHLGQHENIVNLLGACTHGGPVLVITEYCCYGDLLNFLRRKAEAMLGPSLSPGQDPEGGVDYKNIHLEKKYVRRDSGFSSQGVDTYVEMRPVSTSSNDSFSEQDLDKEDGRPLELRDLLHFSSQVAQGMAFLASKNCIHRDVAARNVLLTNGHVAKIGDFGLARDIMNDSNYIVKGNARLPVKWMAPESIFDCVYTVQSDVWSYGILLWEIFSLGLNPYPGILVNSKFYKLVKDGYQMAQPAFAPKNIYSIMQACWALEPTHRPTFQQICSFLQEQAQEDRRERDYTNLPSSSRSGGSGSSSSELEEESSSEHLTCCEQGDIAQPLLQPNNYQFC

[2] = molecular target: JAK2(h) (human, UniProt O60674 808-1132, limits assumed)
Sequence of JAK2(h) (O60674 808-1132 limits assumed): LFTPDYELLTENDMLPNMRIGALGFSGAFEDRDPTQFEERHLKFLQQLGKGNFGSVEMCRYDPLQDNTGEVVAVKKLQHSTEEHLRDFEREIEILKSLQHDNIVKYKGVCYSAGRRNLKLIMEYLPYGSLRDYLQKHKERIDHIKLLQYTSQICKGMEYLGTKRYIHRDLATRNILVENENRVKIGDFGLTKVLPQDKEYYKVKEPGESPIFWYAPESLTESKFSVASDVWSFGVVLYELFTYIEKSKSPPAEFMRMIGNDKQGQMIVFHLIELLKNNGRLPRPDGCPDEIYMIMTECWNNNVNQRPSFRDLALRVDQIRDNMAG

[3] = molecular target: KDR(h) (human, UniProt P35968 790-1356, limits assumed)
Sequence of KDR(h) (P35968 790-1356 limits assumed): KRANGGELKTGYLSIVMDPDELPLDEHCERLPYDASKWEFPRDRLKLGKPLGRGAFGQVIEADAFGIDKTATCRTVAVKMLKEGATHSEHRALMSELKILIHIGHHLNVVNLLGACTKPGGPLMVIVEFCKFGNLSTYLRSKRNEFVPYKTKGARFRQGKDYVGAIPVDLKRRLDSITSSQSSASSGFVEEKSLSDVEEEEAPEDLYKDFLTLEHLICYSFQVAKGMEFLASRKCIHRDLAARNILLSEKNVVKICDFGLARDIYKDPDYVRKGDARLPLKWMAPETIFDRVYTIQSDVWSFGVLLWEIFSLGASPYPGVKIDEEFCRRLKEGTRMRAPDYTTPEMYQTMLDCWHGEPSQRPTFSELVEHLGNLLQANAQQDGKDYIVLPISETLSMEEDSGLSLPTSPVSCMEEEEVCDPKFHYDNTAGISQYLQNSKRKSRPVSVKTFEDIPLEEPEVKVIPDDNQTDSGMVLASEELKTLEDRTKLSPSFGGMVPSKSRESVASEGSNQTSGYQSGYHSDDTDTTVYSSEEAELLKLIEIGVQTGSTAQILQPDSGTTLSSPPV

[4] = molecular target: mTOR(h) (human, UniProt P42345 1362-2549)
Sequence of mTOR(h) (P42345 1362-2549 limits assumed): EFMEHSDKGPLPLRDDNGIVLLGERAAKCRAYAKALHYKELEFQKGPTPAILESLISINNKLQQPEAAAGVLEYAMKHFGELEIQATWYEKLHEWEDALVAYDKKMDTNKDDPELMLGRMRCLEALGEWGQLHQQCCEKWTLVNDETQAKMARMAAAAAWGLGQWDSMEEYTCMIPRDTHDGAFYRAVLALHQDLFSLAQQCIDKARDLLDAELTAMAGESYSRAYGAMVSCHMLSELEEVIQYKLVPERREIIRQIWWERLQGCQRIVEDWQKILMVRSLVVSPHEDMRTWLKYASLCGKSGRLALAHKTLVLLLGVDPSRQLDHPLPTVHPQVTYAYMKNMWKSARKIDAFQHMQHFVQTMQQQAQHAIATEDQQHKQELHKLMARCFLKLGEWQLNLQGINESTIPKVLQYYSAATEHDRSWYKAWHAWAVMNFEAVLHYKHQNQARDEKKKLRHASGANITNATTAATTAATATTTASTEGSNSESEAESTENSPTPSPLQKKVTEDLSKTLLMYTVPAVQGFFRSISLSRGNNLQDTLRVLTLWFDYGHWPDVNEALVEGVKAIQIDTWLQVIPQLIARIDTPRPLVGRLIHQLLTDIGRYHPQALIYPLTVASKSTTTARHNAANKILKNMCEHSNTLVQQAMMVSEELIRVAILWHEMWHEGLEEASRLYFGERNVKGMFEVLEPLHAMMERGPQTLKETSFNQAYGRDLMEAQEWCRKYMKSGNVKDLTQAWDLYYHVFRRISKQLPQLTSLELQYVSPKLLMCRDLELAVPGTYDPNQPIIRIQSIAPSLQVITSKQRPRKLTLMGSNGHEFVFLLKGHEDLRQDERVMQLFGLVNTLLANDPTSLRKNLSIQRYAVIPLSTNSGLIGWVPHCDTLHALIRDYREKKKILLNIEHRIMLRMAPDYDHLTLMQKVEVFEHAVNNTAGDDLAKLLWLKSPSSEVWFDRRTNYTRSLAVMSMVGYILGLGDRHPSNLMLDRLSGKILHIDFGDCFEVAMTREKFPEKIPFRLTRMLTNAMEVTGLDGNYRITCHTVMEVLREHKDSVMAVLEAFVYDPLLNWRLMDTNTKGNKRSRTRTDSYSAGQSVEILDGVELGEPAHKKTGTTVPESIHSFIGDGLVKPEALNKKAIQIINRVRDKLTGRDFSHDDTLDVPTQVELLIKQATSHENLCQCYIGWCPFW

[5] = molecular target: T2, NLK(h) (human, UniProt Q9UBE8 1-527, limits assumed)
T2 sequence (looked up): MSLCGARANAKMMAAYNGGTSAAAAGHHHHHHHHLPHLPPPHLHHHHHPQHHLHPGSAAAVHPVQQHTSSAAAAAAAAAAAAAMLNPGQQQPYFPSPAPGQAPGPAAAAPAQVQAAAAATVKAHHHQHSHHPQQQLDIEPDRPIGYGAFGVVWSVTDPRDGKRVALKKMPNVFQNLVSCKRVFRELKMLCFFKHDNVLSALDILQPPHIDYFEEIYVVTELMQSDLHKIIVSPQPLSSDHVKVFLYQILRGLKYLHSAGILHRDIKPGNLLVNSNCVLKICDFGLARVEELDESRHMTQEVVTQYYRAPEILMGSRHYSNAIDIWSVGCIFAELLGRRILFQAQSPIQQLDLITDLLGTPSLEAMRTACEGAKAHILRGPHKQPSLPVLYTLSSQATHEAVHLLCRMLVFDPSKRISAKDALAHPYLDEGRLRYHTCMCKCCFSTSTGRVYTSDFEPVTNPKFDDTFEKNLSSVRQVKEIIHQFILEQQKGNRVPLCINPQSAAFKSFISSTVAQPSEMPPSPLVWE

[6] = molecular target: PKBβ(h) (human, UniProt P31751 1-481, limits assumed)
Sequence of PKBβ(h) (P31751 whole entry): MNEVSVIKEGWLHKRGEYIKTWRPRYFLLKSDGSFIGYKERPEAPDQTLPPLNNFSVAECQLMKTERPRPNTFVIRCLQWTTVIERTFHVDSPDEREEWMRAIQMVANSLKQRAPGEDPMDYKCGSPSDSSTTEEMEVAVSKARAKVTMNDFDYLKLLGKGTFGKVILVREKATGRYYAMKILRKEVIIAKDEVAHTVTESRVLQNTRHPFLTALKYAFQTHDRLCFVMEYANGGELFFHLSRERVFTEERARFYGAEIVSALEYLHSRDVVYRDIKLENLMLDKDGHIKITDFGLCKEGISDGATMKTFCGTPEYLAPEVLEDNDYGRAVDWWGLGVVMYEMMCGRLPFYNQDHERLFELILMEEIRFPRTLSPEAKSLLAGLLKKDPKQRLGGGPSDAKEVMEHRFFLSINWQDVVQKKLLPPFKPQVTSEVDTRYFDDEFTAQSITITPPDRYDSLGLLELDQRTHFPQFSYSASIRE

[7] = molecular target: STK33(h) (human, UniProt Q9BYT3 1-514, limits assumed)
Sequence of STK33(h) (Q9BYT3 whole entry): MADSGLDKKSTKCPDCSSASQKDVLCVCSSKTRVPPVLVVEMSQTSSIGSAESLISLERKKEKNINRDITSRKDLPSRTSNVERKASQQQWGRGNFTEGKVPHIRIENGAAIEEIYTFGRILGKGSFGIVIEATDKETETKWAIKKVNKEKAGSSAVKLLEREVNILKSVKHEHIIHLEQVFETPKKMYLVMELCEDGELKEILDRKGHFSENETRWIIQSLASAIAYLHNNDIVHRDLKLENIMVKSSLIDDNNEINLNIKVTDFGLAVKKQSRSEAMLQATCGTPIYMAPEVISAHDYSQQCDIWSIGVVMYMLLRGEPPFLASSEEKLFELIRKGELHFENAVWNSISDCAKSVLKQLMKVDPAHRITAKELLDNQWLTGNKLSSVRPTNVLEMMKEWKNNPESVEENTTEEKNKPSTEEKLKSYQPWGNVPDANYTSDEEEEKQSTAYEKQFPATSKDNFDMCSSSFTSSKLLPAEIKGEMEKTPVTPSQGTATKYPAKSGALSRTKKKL

[8] = molecular target: T3, BrSK2(h) (human, UniProt Q8IWQ3 1-736, limits assumed)
T3 sequence (looked up): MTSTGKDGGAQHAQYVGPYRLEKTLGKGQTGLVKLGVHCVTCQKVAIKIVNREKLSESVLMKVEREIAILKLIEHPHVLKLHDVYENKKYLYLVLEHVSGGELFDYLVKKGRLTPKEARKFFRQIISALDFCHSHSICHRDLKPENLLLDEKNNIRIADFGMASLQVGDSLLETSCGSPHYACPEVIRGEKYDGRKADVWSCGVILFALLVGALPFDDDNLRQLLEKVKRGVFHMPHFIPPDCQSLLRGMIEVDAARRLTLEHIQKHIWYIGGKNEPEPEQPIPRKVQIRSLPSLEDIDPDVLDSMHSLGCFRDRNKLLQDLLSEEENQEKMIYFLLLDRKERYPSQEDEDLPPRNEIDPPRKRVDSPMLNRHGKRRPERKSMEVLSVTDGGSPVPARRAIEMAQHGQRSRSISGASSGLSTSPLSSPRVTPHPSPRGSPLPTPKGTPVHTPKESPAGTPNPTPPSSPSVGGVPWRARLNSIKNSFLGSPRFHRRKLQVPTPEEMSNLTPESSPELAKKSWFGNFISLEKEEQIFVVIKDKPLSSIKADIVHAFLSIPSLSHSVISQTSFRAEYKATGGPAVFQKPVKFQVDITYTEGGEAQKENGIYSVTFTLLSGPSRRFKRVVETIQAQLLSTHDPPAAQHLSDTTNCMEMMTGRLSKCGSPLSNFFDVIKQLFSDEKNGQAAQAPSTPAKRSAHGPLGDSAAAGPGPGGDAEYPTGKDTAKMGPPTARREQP

[9] = molecular target: T4, TSSK2(h) (human, UniProt Q96PF2 1-358)
T4 sequence (looked up): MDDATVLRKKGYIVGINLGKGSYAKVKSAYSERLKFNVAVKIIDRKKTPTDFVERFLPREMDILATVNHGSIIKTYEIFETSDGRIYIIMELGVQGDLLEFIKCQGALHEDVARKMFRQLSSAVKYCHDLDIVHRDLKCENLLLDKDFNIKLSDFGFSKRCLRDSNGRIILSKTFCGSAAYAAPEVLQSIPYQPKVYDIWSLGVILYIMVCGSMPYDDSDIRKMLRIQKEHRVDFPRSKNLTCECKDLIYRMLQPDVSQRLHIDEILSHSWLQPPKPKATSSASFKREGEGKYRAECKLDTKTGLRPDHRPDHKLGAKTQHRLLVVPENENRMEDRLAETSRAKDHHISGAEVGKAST

[10] = molecular target: T5, CHK1(h) (human, UniProt O14757 1-476)
T5 sequence (looked up): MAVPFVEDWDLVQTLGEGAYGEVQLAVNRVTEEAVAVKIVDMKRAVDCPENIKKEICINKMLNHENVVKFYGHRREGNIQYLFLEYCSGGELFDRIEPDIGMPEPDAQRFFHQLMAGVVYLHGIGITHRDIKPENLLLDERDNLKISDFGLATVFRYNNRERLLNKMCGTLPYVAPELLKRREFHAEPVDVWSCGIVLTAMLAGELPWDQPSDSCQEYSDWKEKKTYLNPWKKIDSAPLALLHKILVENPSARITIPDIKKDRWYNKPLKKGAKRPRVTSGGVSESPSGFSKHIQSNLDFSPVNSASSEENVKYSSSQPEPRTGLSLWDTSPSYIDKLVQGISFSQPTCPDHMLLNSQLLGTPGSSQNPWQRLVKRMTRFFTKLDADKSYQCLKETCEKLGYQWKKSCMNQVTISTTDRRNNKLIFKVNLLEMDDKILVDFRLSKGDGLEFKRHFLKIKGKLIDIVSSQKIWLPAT

Binder | % activity [1] [%] | % activity [2] [%] | % activity [3] [%] | % activity [4] [%] | % activity [5] [%] | % activity [6] [%] | % activity [7] [%] | % activity [8] [%] | % activity [9] [%] | % activity [10] [%]
FAKLAARLYRKALARQLGVAA [MMI-0300] | 45 | 133 | 101 | 91 | 87 | 84 | 45 | 83 | 98 | 91
KAFAKLAARLYRKALARQLGVAA [MMI-0400] | 37 | 119 | 94 | 93 | 90 | 98 | 52 | 86 | 94 | 87
